From PMC8684745 (Molecular Biology of the Cell, 2021)
Blank lines part the entries; values can stand above or below the molecule they belong to.

What was measured:
[1] = molecular target: Drp1/actin bundles (actin filaments prebundled by Cy5-Drp1) (human | rabbit) (UniProt O15027); experiment: TIRF microscopy
[2] = molecular target: Drp1 (full-length human Drp1 isoform 3, Drp1 000) (human) (UniProt O00429); experiment: TIRF microscopy
AUC = molecular target: the molecule itself; experiment: AUC

Sequence of Drp1/actin bundles (actin filaments prebundled by Cy5-Drp1) (human | rabbit) (O15027 whole entry, canonical isoform): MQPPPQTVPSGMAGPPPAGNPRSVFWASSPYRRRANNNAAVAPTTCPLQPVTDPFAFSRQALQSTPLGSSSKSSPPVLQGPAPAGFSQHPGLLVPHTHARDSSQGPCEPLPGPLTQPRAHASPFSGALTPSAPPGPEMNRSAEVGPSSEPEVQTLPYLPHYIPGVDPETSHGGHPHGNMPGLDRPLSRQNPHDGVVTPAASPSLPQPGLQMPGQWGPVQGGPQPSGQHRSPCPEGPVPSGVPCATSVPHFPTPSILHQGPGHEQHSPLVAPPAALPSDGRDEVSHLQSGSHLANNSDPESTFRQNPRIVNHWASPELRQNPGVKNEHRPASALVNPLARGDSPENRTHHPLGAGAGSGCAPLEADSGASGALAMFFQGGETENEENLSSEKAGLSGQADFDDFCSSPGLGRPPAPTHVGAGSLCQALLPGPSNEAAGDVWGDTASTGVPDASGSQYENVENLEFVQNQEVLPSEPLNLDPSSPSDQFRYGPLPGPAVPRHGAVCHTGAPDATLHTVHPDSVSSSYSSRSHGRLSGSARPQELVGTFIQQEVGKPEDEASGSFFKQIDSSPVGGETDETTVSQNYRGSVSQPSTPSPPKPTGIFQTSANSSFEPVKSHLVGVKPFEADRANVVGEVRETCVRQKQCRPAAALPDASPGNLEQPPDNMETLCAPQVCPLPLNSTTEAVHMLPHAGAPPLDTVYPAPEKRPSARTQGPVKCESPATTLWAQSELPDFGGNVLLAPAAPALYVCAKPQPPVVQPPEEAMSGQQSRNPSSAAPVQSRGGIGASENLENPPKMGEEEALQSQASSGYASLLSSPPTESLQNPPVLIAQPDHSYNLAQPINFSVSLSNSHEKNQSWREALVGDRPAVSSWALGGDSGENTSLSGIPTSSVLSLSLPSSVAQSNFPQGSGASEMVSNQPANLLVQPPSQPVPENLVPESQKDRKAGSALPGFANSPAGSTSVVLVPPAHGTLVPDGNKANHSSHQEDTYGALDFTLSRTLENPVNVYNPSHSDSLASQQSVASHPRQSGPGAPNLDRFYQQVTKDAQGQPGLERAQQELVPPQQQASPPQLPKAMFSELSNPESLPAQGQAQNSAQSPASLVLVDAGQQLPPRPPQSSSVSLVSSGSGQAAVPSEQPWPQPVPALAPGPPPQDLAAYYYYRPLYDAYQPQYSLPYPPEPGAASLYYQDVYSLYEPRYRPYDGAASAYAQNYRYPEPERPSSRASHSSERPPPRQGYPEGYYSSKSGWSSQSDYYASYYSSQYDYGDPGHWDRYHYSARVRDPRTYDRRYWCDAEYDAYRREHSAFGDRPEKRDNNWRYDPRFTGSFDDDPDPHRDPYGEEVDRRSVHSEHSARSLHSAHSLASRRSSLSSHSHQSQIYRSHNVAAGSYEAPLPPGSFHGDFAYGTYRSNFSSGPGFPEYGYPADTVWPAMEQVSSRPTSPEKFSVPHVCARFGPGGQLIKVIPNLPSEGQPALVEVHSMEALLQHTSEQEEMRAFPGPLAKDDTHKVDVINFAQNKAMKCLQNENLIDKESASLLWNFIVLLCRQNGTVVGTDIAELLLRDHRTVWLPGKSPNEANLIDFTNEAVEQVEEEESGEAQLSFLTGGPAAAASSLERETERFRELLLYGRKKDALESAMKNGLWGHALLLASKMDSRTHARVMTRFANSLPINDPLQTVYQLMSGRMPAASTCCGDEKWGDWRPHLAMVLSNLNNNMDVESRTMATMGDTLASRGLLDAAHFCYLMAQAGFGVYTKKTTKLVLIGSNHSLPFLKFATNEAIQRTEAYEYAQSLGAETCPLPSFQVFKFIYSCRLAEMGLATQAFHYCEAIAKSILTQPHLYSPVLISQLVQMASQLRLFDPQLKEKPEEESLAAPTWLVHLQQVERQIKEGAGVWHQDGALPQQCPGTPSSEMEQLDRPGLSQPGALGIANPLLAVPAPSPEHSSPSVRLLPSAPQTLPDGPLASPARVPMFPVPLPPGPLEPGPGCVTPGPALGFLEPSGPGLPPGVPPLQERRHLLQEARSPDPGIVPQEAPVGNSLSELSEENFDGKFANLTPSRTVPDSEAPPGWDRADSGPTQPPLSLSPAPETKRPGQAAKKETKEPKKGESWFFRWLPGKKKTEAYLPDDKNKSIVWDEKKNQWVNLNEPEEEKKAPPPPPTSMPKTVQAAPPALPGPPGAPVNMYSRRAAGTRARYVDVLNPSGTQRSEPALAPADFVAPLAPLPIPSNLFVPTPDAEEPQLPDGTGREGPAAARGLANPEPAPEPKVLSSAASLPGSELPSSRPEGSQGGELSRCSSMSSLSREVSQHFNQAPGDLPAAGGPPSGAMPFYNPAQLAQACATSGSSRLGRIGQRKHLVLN

- percent of Mff-∆TM remaining after wash [1]: 50%
Molecule: Mff-∆TM (cytoplasmic region of human Mff isoform 4, C-terminally 6His-tagged) (from UniProt Q9GZY8-4 1-218) (domain or fragment)

- fold less binding than Mff-∆TM [2]: 5 fold
Molecule: Mff-L2P (Mff-∆TM with L179P and L186P) (from UniProt Q9GZY8-4 1-218) (domain or fragment)

B1: GFP-CC (CC domain of human Mff isoform 4, amino acids 149–197, on the C-terminus of GFP) (domain or fragment)
chain: SGGGGISNIDTTIEGTSDDLTVVDAASLRRQIIKLNRRLQLLEEENKERAKREGGGS
- stoichiometry N (AUC): 3
